{"source": "patent US8795990B2", "about": "“Recombinant enzyme with altered feedback sensitivity” (Metabolic Explorer, priority 2004, dated 2014)", "molecules": {"B1": {"name": "metA: wild-type E. coli homoserine transsuccinylase (metA gene, strain MG1655) (protein, UniProt P07623 2-309, looked up)", "Homoserine …": "PIRVPDELPAVNFLREENVFVMTTSRASGQEIRPLKVLILNLMPKKIETENQFLRLLSNSPLQVDIQLLRIDSRESRNTPAEHLNNFYCNFEDIQDQNFDGLIVTGAPLGLVEFNDVAYWPQIKQVLEWSKDHVTSTLFVCWAVQAALNILYGIPKQTRTEKLSGVYEHHILHPHALLTRGFDDSFLAPHSRYADFPAALIRDYTDLEILAETEEGDAYLFASKDKRIAFVTGHPEYDAQTLAQEFFRDVEAGLDPDVPYNYFPHNDPQNTPRASWRSHGNLLFTNWLNYYVYQITPYDLRHMNPTLD"}, "B2": {"name": "metA*11: mutant homoserine transsuccinylase allele, CAG exchanged for GAG, Q replaced by E (Q64E) (protein, UniProt P07623 2-309, looked up, variant Q64E)", "Homoserine …": "B1 Homoserine … with Q63E"}, "B3": {"name": "MetK* T227I (protein, UniProt P0A817 2-384, looked up, variant T227I)", "S-adenosylmethionine synthase": "AKHLFTSESVSEGHPDKIADQISDAVLDAILEQDPKARVACETYVKTGMVLVGGEITTSAWVDIEEITRNTVREIGYVHSDMGFDANSCAVLSAIGKQSPDINQGVDRADPLEQGAGDQGLMFGYATNETDVLMPAPITYAHRLVQRQAEVRKNGTLPWLRPDAKSQVTFQYDDGKIVGIDAVVLSTQHSEEIDQKSLQEAVMEEIIKPILPAEWLTSATKFFINPIGRFVIGGPMGDCGLTGRKIIVDTYGGMARHGGGAFSGKDPSKVDRSAAYAARYVAKNIVAAGLADRCEIQVSYAIGVAEPTSIMVETFGTEKVPSEQLTLLVREFFDLRPYGLIQMLDLLHPIYKETAAYGHFGREHFPWEKTDKAQLLRDAAGLK"}, "B4": {"name": "MetK* P137L (protein, UniProt P0A817 2-384, looked up, variant P137L)", "S-adenosylmethionine synthase": "B3 S-adenosylmethionine synthase with P137L, I227T"}, "B5": {"name": "MetK* H189Y (protein, UniProt P0A817 2-384, looked up, variant H189Y)", "S-adenosylmethionine synthase": "B3 S-adenosylmethionine synthase with H189Y, I227T"}, "B6": {"name": "WT: wild-type E. coli S-adenosylmethionine synthetase (MetK) (protein, UniProt P0A817 2-384, looked up)", "S-adenosylmethionine synthase": "B3 S-adenosylmethionine synthase with I227T"}, "B7": {"name": "MetK* R161C + P235S (protein, UniProt P0A817 2-384, looked up, variant R161C P235S)", "S-adenosylmethionine synthase": "B3 S-adenosylmethionine synthase with R161C, I227T, P235S"}, "B8": {"name": "MetK* G115S (protein, UniProt P0A817 2-384, looked up, variant G115S)", "S-adenosylmethionine synthase": "B3 S-adenosylmethionine synthase with G115S, I227T"}, "B9": {"name": "MetK* S59N + G105S (protein, UniProt P0A817 2-384, looked up, variant S59N G105S)", "S-adenosylmethionine synthase": "B3 S-adenosylmethionine synthase with S59N, G105S, I227T"}, "B10": {"name": "MetK* H143T (protein, UniProt P0A817 2-384, looked up, variant H143T)", "S-adenosylmethionine synthase": "B3 S-adenosylmethionine synthase with H142T, I227T"}, "B11": {"name": "MetK* G105S (protein, UniProt P0A817 2-384, looked up, variant G105S)", "S-adenosylmethionine synthase": "B3 S-adenosylmethionine synthase with G105S, I227T"}}, "key": {"[1]": {"target": "homoserine transsuccinylase enzyme MetA (Escherichia coli, UniProt P07623)", "sequence (P07623 whole entry)": "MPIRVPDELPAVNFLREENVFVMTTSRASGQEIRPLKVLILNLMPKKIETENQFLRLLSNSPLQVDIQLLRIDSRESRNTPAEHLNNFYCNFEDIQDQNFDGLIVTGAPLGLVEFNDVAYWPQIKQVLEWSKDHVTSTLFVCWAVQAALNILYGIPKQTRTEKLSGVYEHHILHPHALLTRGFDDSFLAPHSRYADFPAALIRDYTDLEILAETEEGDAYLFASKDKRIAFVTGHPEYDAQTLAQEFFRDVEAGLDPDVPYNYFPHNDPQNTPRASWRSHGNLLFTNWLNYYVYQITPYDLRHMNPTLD", "conditions": "in words; cited from earlier work"}, "[2]": {"system": "E. coli", "conditions": "growth rate of E. coli; cited from earlier work"}, "[3]": {"system": "homoserine transsuccinylase", "experiment": "Homoserine transsuccinylase activity in vitro in crude extracts, succinylhomoserine quantified by GC-MS, with or without methionine and S-adenosylmethionine", "conditions": "for MetA activity of clones in pTRC99A: alleles cloned in pTRC99A with an alanine between amino acid 1M and 2P", "protocol": "The activity of homoserine transsuccinylase was determined in vitro E. coli strains carrying either wild-type or mutant-enzymes were cultured in rich medium with 2.5 g/l glucose and harvested at late log phase. Cells were resuspended in cold potassium phosphate buffer and sonicated on ice (Branson sonifier, 70W). After centrifugation, proteins contained in the supernatants were quantified (Bradford, 1976).\nTen μl of the extracts were incubated for 30 minutes at 25° C. with 30 mM homoserine and 4 mM succinyl-CoA. Methionine and/or S-adenosylmethionine were added as indicated. The succinylhomoserine produced by homoserine transsuccinylase enzymes was quantified by GC-MS after derivatization with tert-butyldimethylsilyltrifluoroacetamide (TBDMSTFA). L-Serine[1-13C] was included as an internal standard."}, "[4]": {"system": "S-adenosylmethionine synthetase", "experiment": "S-adenosylmethionine synthetase (MAT) activity in vitro in crude extracts, FIA-MS/MS", "type": "biochemical, E. coli", "conditions": "10 mM methionine, 10 mM ATP, 37° C., 30 minutes"}, "[5]": {"conditions": "Methionine 0 mM, S-adenosylmethionine 0 mM, rich medium extracts"}, "[6]": {"conditions": "Methionine 0 mM, S-adenosylmethionine 0.1 mM"}, "[7]": {"conditions": "Methionine 0 mM, S-adenosylmethionine 1 mM"}, "[8]": {"conditions": "Methionine 10 mM, S-adenosylmethionine 0 mM"}, "[9]": {"conditions": "Methionine 10 mM, S-adenosylmethionine 0.1 mM"}, "[10]": {"conditions": "Methionine 10 mM, S-adenosylmethionine 1 mM"}}, "note": "Numbering of substitutions follows the chain as printed. Names and notes keep the numbering of the source."}
{"molecule": "CSCC[C@](C)(N)C(=O)O", "note": "[α-methylmethionine]", "values": [{"measurement": "inhibition of homoserine transsuccinylase enzyme MetA", "setting": "[1]", "value": "potent inhibitor"}, {"measurement": "minimal concentration for a maximal inhibition", "setting": "[2]", "value": 5, "unit": "µg/mL"}, {"measurement": "minimal inhibitory concentration", "setting": "[2]", "value": 1, "unit": "µg/mL"}]}
{"molecule": "B1", "values": [{"measurement": "Specific activity", "setting": "[3]; [5]", "value": 36.7, "unit": "mUI/mg proteins"}, {"measurement": "Specific activity", "setting": "[3]; [6]", "value": 27.9, "unit": "mUI/mg proteins"}, {"measurement": "Specific activity", "setting": "[3]; [7]", "value": 4.7, "unit": "mUI/mg proteins"}, {"measurement": "Specific activity", "setting": "[3]; [8]", "value": 0.4, "unit": "mUI/mg proteins"}, {"measurement": "Specific activity", "setting": "[3]; [9]", "value": 0.2, "unit": "mUI/mg proteins"}, {"measurement": "Specific activity", "setting": "[3]; [10]", "value": 0.1, "unit": "mUI/mg proteins"}, {"measurement": "MetA activity of clones in pTRC99A", "setting": "[3]", "value": "vary low"}]}
{"molecule": "B2", "values": [{"measurement": "Specific activity", "setting": "[3]; [5]", "value": 19.2, "unit": "mUI/mg proteins"}, {"measurement": "Specific activity", "setting": "[3]; [6]", "value": 21.7, "unit": "mUI/mg proteins"}, {"measurement": "Specific activity", "setting": "[3]; [7]", "value": 18.5, "unit": "mUI/mg proteins"}, {"measurement": "Specific activity", "setting": "[3]; [8]", "value": 18.7, "unit": "mUI/mg proteins"}, {"measurement": "Specific activity", "setting": "[3]; [9]", "value": 16.9, "unit": "mUI/mg proteins"}, {"measurement": "Specific activity", "setting": "[3]; [10]", "value": 2.7, "unit": "mUI/mg proteins"}, {"measurement": "MetA activity of clones in pTRC99A", "setting": "[3]", "value": "vary low"}]}
{"molecule": "B3", "values": [{"measurement": "MAT (S-adenosylmethionine synthetase activity)", "setting": "[4]", "value": 4.9, "unit": "mUI/mg prot"}]}
{"molecule": "B4", "values": [{"measurement": "MAT (S-adenosylmethionine synthetase activity)", "setting": "[4]", "value": 1.2, "unit": "mUI/mg prot"}]}
{"molecule": "B5", "values": [{"measurement": "MAT (S-adenosylmethionine synthetase activity)", "setting": "[4]", "value": 0.6, "unit": "mUI/mg prot"}]}
{"molecule": "B6", "values": [{"measurement": "MAT (S-adenosylmethionine synthetase activity)", "setting": "[4]", "value": 7.5, "unit": "mUI/mg prot"}]}
{"molecule": "B7", "values": [{"measurement": "MAT (S-adenosylmethionine synthetase activity)", "setting": "[4]", "value": 0.7, "unit": "mUI/mg prot"}]}
{"molecule": "B8", "values": [{"measurement": "MAT (S-adenosylmethionine synthetase activity)", "setting": "[4]", "value": 0.4, "unit": "mUI/mg prot"}]}
{"molecule": "B9", "values": [{"measurement": "MAT (S-adenosylmethionine synthetase activity)", "setting": "[4]", "value": 2.9, "unit": "mUI/mg prot"}]}
{"molecule": "B10", "values": [{"measurement": "MAT (S-adenosylmethionine synthetase activity)", "setting": "[4]", "value": 2.5, "unit": "mUI/mg prot"}]}
{"molecule": "B11", "values": [{"measurement": "MAT (S-adenosylmethionine synthetase activity)", "setting": "[4]", "value": 2.8, "unit": "mUI/mg prot"}]}
